Experimental data from patent US20130323252A1 (Novartis, published 2013).
Positions of bridges follow the written chain, without caps; N, C: chain ends. No end group written: not given here.

Assays:
[1] = target: TMEM16A-GFP fusion protein on HEK293 stable cells (UniProt Q5XXA6); assay: flow cytometry on HEK293-TMEM16A cells
[2] = target: SP31 (ab64085) Abcam rabbit monoclonal antibody against human TMEM16A; assay: peptide pre-incubation of the antibody, western blot of TMEM16A
[3] = target: T1, cyclic peptide 45_ECD1-3 cys (human, disulfide 1-17 (inferred)); assay: peptide microarray, cyclic peptide, Cy5 anti-rat IgG detection
T1 construct: Same 15-mer as linear peptide 45, flanked by cysteines; also called Peptide 45 (cyclic)
T1 peptide: CSRYKDYREPPWSENKC
Protocol: (§1) Both set of peptides were printed on microarray slides in triplicate, incubated with the antibody of interest (12E11) and control antibodies. One is an incubation with an unrelated antibody from the same isotype (rat control IgG2b), the second using only the secondary antibody (anti-rat IgG (H+L) (JIR, 212-175-082) (Label Cy5)) to assess unspecific binding due to the detection antibody. The experiments are performed essentially as described in Maksimov P, et al. 2012, PLoS One 7:e34212. doi:10.1371/journal.pone. 0034212.
(§2) The determination of peptide-antibody binding was performed by RepliTope-analysis where the peptide microarray (triplicate) was incubated with the primary antibody followed by a fluorescently labelled secondary antibody directed against the Fc-part of the primary one. All steps were performed on a TECAN microarray processing station enabling highly reliable and reproducible washing and incubation steps. After performing the incubation steps and subsequent to the final washing steps (to remove the unbound secondary antibodies) the microarrays were dried using a nitrogen stream and scanned in a high resolution microarray scanning system with appropriate wavelength settings. Control incubations were performed with an unrelated antibody having the same isotype to exclude false positive signals.
(§3) The resulting images were analyzed and quantified using spot-recognition software GenePix (Molecular Devices). For each spot, the mean signal intensity was extracted (between 0 and 65535 arbitrary units). For further data evaluation, the MMC2 values were determined. The MMC2 equals the mean value of all three instances on the microarray. Except the coefficient of variation (CV)—standard-deviation divided by the mean value—is larger 0.5, in this case the mean of the two closest values (MC2) is assigned to MMC2.

[4] = target: T2, cyclic peptide 44_ECD1-3 cys (human, disulfide 1-17 (inferred)); assay: as above
T2 construct: Same 15-mer as linear peptide 44, flanked by cysteines; also called Peptide 44 (cyclic)
T2 peptide: CVQISRYKDYREPPWSC
Protocol: as §1, §2, §3

[5] = target: T3, cyclic peptide 46_ECD1-3 cys (human, disulfide 1-17 (inferred)); assay: as above
T3 construct: Same 15-mer as linear peptide 46, flanked by cysteines; also called peptide 46 (cyclic)
T3 peptide: CKDYREPPWSENKYDIC
Protocol: as §1, §2, §3

[6] = target: T4, linear peptide 44_ECD1-3 (human); assay: peptide microarray, linear peptide, Cy5 anti-rat IgG detection
T4 peptide: VQISRYKDYREPPWS
Protocol: as §1, §2, §3

[7] = target: T5, linear peptide 46_ECD1-3 (human); assay: as above
T5 peptide: KDYREPPWSENKYDI
Protocol: as §1, §2, §3

[8] = target: T6, linear peptide 45_ECD1-3 (human); assay: as above
T6 peptide: SRYKDYREPPWSENK
Protocol: as §1, §2, §3

Sequence of TMEM16A-GFP fusion protein on HEK293 stable cells (Q5XXA6 whole entry, the tested form may be a part): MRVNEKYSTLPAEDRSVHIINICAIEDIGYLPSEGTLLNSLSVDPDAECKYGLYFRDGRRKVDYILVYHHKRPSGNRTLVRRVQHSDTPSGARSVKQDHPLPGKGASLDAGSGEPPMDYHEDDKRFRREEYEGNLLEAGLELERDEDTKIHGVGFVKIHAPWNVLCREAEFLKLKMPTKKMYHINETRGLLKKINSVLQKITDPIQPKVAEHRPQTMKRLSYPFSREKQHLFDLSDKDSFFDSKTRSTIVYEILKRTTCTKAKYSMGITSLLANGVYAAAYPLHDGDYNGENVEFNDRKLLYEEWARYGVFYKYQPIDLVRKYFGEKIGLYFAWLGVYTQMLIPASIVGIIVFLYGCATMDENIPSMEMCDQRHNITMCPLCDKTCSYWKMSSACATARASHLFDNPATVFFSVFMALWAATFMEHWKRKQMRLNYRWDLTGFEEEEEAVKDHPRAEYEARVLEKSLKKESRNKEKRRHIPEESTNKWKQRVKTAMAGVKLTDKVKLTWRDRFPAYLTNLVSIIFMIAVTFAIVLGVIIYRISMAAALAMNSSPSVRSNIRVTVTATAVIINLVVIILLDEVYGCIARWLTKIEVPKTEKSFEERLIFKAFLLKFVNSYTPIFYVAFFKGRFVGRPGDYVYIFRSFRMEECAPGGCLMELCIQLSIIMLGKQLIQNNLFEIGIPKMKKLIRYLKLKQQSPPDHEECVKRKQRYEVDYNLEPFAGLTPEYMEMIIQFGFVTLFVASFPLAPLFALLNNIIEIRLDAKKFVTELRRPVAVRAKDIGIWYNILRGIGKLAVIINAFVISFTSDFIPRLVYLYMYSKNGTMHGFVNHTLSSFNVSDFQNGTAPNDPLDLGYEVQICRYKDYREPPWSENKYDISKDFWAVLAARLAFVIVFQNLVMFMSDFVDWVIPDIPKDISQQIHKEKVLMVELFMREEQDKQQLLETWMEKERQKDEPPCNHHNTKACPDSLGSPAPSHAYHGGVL

## isotype control antibody (control for 12E11 in flow cytometry)
[1]
  median fluorescence intensity: 93

## DHEECVKRKQRYEVDYNLE [blocking Peptide #2]
[2]
  peptide concentration that effectively blocked: 0.01 µg/mL

B1: 12E11 TMEM16A antibody (antibody, V domains shown)
VH: QVQLKESGPGLVQPSQTLTLTCTVSGFSLSNYDMHWVRQSPGKGLDWMGVIWGNGKTQYNSGLTSRLSISRDTSKSQVFLKMNSLQTEDTAIYFCTRSGYYYDGSYYSLFDYWGQGVMVTVSS
VL: DVVLTQTPPTLSATIGQSVSISCRSSQSLLHSNGNTYLNWLLQRPGQPPQLLIYLVSRLESGVPNRFSGSGSGTDFTLKISGVEAEDLGVYYCVQSTHAPAFGGGTKLELK
notes: Rat hybridoma monoclonal made by genetic immunization; The same-isotype control was rat IgG2b, which implies a rat IgG2b constant region
[3]
  Signal intensity after subtraction of control signal (AU): 56600 AU
[4]
  Signal intensity after subtraction of control signal (AU): 55900 AU
[5]
  Signal intensity after subtraction of control signal (AU): 24800 AU
[6]
  Signal intensity after subtraction of control signal (AU): 36800 AU
[7]
  Signal intensity after subtraction of control signal (AU): 15100 AU
[8]
  Signal intensity after subtraction of control signal (AU): 27300 AU
